The values that follow come from doi:10.1101/2021.05.28.446204.

Experiment in all cases: fluorescence polarisation
Background: In fluorescence polarisation assays a small probe gives low polarisation when free and higher when bound to something large.

The target of assay [1] is TAMRA-labeled CoV-2 nsp1 C-K R124A/K125A (SARS-CoV-2) (UniProt P0DTD1).
The target of assay [2] is TAMRA-labeled CoV-2 nsp1 C-K R99A (SARS-CoV-2) (UniProt P0DTD1).
Assay [3] deals with TAMRA-labeled CoV-2 nsp1 C-K, wild type (SARS-CoV-2) (UniProt P0DTD1).

As a reminder, the Kd is the constant that tells how readily two partners part at equilibrium. Low values mean a tighter complex, high ones a looser complex. Turning to “purified ribosomes (crude 80S from HeLa cell lysate) (from UniProt P15880;P23396;P62847;P63244) (complex)”, the fold increase in Kd against WT nsp1 in assay [1] was 2 fold; in assay [2], 1.6 fold. For the same substance, the Kd in assay [3] came out at 539 nM.
